Measurements from the DeepSol protein solubility set.

Test: soluble on expression in E. coli; label from the status in PepcDB or PDB records

Soluble on expression in E. coli, soluble:
MRKPILAALTLAGLGLAQEFITIGSGSTTGVYFPVATGIAKLVNDANVGIRANARSTGGSVANINAINAGEFEMALAQNDIAYYAYQGCCIPAFEGKPVKTIRALAALYPEVVHVVARKDAGIRTVADLKGKRVVVGDVGSGTEQNARQILEAYGLTFDDLGQAIRVSASQGIQLMQDKRADALFYTVGLGASAIQQLALTTPIALVAVDLNRIQAIAKKYPFYVGFNIPGGTYKGVDVTTPTVAVQAMLIASERLSEETVYKFMKAVFGNLEAFKKIHPNLERFFGLEKAVKGLPIPLHPGAERFYKEAGVLK
ATTLYLTRHGETKWNVERRMQGWQDSPLTEKGRQDAMRLGKRLEAVELAAIYTSTSGRALETAEIVRGGRLIPIYQDERLREIHLGDWEGKTHDEIRQMDPIAFDHFWQAPHLYAPQRGERFCDVQQRALEAVQSIVDRHEGETVLIVTHGVVLKTLMAAFKDTPLDHLWSPPYMYGTSVTIIEVDGGTFHVAVEGDVSHIEEVKEV
GMNTLLKQLKPYPFARLHEAMQGISAPEGMEAVPLHIGEPKHPTPKVITDALTASLHELEKYPLTAGLPELRQACANWLKRRYDGLTVDADNEILPVLGSREALFSFVQTVLNPVSDGIKPAIVSPNPFYQIYEGATLLGGGEIHFANCPAPSFNPDWRSISEEVWKRTKLVFVCSPNNPSGSVLDLDGWKEVFDLQDKYGFIIASDECYSEIYFDGNKPLGCLQAAAQLGRSRQKLLMFTSLSKRSNVPGLRSGFVAGDAELLKNFLLYRTYHGSAMSIPVQRASIAAWDDEQHVIDNRRLYQEKFERVIPILQQVFDVKLPDASFYIWLKVPDGDDLAFARNLWQKAAIQVLPGRFLARDTEQGNPGEGYVRIALVADVATCVKAAEDIVSLYR
GLNPPSAFSGAALACLEKMQASGVEEKCIHIFLIQHALVRKGETGYIPEKSISPVESLPFLQGIETKGENTALLRQAVVLKLNGGLGTGMGLNGPKSLLQVKNGQTFLDFTALQLEHFRQVRNCNVPFMLMNSFSTSGETKNFLRKYPTLYEVFDSDIELMQNRVPKIRQDNFFPVTYEADPTCEWVPPGHGDVYTVLYSSGKLDYLLGKGYRYMFISNGDNLGATLDVRLLDYMHEKQLGFLMEVCRRTESDKKGGHLAYKDVIDETTGQTRRRFVLRESAQCPKEDEDSFQNIAKHCFFNTNNIWINLMELKKMMDEQLGVLRLPVMRNPKTVNPQDSQSTKVYQLEVAMGAAISLFDRSEAVVVPRERFAPVKTCSDLLALRSDAYQVTEDQRLVLCEERNGKPPAIDLDGEHYKMIDGFEKLVKGGVPSLRQCTSLTVRGLVEFGADVSVRGNVVIKNLKEEPLIIGSGRVLDNEVVVVE
MSLSKVFTIGEILVEIMASKIGQPFDQPGIWNGPYPSGAPAIFIDQVTRLGVPCGIISCVGNDGFGDINIHRLAADGVDIRGISVLPLEATGSAFVTYHNSGDRDFIFNIKNAACGKLSAQHVDENILKDCTHFHIMGSSLFSFHMVDAVKKAVTIVKANGGVISFDPNIRKEMLDIPEMRDALHFVLELTDIYMPSEGEVLLLSPHSTPERAIAGFLEEGVKEVIVKRGNQGASYYSANEQFHVESYPVEEVDPTGAGDCFGGAWIACRQLGFDAHRALQYANACGALAVTRRGPMEGTSRLMEIETFIQRHDMSIREAAQEGHHHHHH
MAHHHHHHMDSDLSAEIARIEAELAQDAELRQQQQQLAPQQPPASLFGFGQTAPVQPQQQQQQQLFQTQPPQPQQQPSNPFNVNASPFMPTPQQPDYSQQQQQQQQPIGSAGQAAAQASAPTPIIHSFSKDTDSRSIFIGNLPRGTDGTPTTTPEELVQFFADCGNILNCTVLKDRATGEPKGTAYIEFADYTAMGKAIDTKNNANFKGSTIIVCVSTSPLFSLAGFFG
TGLRPSGTVSCPICMDGYSEIVQNGRLIVSTECGHVFCSQCLRDSLKNANTCPTCRKKINHK
MTRLPDIKKEVRFNAPIEKVWEAVSTSEGLAFWFMENDLKAETGHHFHLQSPFGPSPCQVTDVERPIKLSFTWDTDGWSVTFHLKEEENGTIFTIVHSGWKQGDTKVEKAGAESAVVHERMDRGWHDLVNERLRQIVELEHHHHHH

Soluble on expression in E. coli, not soluble:
MGSDKIHHHHHHMTPSNVNSAGYKVIKISEFLSKKEYLDKKLVIPVYQRPYRWTAKNIVDLLSDLYYQCKRIGHRLGSPDNPDNFYRLGTVVLHQYVNNGSHQTNADLVDGQQRTLTLLLIMKSALESNRFTEQFNSFTPLEIELPDCSETQQNLSRNYELIRRHVNSPEFTSEVLDFLLNHCEVVQVTLHYLSEAFQFFDSQNARGLDLNPHDLLKAFHLREFPDSESLLKQNIVECWEQQNTKSLEVLFANYLYPIRRWSFGKQAVHFSKSEVNVFKGMKLDSDSYPFQENLRIVHNTVDSYNHHSHRLLDQQAMAYPFQLTQTLINGRRFFEWVTHYQEMIQPLLNKTIDSDSQKWLYTITSCHHTETGTSIKEVAKRPTAFNIFLVLNTDLPEYSYKGRSRRGDQYVRRMFDALVLCYYDRFGSHNLPRAIEYIFIWAYSLRLEKKSVYLESIEKHIGTDNLFERLQQSLSSVDFLSKPLPQPKKVDVTNVEGIKELFTKLGYLPT
MNLYLITFQSSLNRIESVYDCHKDLFVEIEKFFTLHLVPYTEAASIPADAYRMAFIASGGVEKMVTQHFELLPYPIHLLTDGQQNSLAASLEIATWIRSKGMKVHIIHGTIPNMVKQLIDHHKAFAAQREVRGKRIGVVGYSSPWLVASNVDYLLAKRRWGIEFIDIPMEEVYCLFYQIKDDDIGYEASVFANRAIACREGTPEDLLKAMRLYQAVKIICEKKKLDAVTLSCFSLIEKLGTTGCLALALLNDEGIPAGCEGDLQSIFTLLIAKTLTGQAGFMANPAFINDDQNEIVMAHCTIATKMVDQFIIRNHFETETGIAIQGILHPGGITMIKCAGECLDEYFVSTGQLIENTNYINACRTQARIKLDKPVDYFMRNPLGNHHIILMGDHEKVIHEFMQLNSCKLVE
MARYSLHAGHNSIVQGANYGNRKEHIMDRQVKDAVVAKLRALGHTVYDDTDEVGTTQAQNLNNIVSKTNSHDVDLVVSFHLNSYDTRANGVEVLYYDQQALSAKIAAQLSKDIGWSNRGAKERKDLYVLSNTKAPAILIELGFIDNEADMAKWNPDKIANSIVYALTGQSGGTTPPSKQNIIQSGAFSPYETPDVMGALTSLKMTANFILQSDGLTYFISEPTSDAQLKGMTDYLDRRGWWYEVK
MGSDKIHHHHHHMMTQVPDTPQALYRALPSMDSLLADAVLAPLLQRYGKAAVKAALDSQLRTARELIAQERRLPAWCANPSLLNGYLVDQLSKDYSHSLKPVWNLTGTILHTNLGRAQQSEAAIRAVTSVMRYPTPLEFELAAGERGHRDNAISGLIQRLTGAEACCVVNNNAAAVLLMLSAVAAGKEVIVSRGELVEIGGAFRIPDIMRQAGCTLVEVGSTNRTHLKDYEQAITENTAAIMKVHTSNYHISGFTAAVEEARLGQLCRERGILLISDLGSGSLTDLRRFGLKQEPTPQAMLADGVDLVSFSGDKLLGGPQSGLIVGKQALINKLQSHPLKRALRCDKLILAALEATLIHYLNPETLDKELPIMAKFARSQAELRQIGERLQQALAPLFTPSYGLELVECQTQVGSGSQPDTFLPSIGLCFNAQEGGSLTLLEQHFKQAQRPVIGRMTQDQLRLDLRGIDDEAELLAELSTLGVQL
MITTQDKELLAKKGITEAQIAEQLACFQTGFPYLKLDAAASIEKGILAPDAEEKNAYLAAWDAYKNTDKIIVKFVPASGAASRMFKNLFEFLSAEYDKPTTKFEQAFFDGIKDFAFYDDLNVACQRTAGKDIPGLMEEGNYKAVVAALLETAGLNYGALPKGLLKFHKYPEGSRTPLEEHLAEGAMYAAGKSGKVNVHFTVSTEHRELFKKLVEEKAEAFGKRYGVDYYITFSEQKPNTDTIAADMDNQPFRDNGKLLFRPGGHGALIENLNDLDADIIFIKNIDNVVPDKLKADTVTYKKLIAGVLVSLQKKAFEYLELLDSGKYTHEQIMEILQFLQKQLFCKNPETKNLEDAELVIYLKNKLNRPMRVCGMVKNVGEPGGGPFLAYNSDGTISLQILESSQIDMNDPAKKEMFEKGTHFNPVDLVCAVRDYKGHKFDLVKYVDKATGFISYKSKNGKDLKALELPGLWNGAMSDWNTVFVEVPLTTFNPVKTVNDLLREQHQ
MDEAYKMRCDWYHHGELVSGGESESKFSQLNDEVVELYQAAEYLDEEFAGMVHLGEIVERDDKKEDEFLAKLADAETPLYPSCFNHSKLSAIMSLFTLKTKNGWSDKSHNDLLETLPEMLLEDNVLHSSLYEVKKFLKSFDMG
MKKDVTQKQTIIKFENGHLYTASDSCITEMPLTIKVNEFKFATIICSRNYLEELTLGFLASEGIFLKRNDLQSIHIDESKGFAHVKLTQSVGHHFEHPTKRVLASCCGKSRAFYFQNDAAIAKTSMTTILEHHHHHH
MPLHVVEQPAFLVAVVPDMVGGRLSSHDKDLLGLARKLAGNDGAVLAVVFGEHKESAFDSAGVDRLLHLSGGEYDGYAPEQRILALRNLENQLAPRHWLFPDSRNGGGELGRRLAAALGERPAGRVWQVEDGRCIGRAGAGREDIQRALPRLLLAAAECAEPVSETRHEVRELHMAEQVARNLPRIEDLGPVAVDPA
DLKILDPIWTTAYITRNHGYMVYDTLFSLDAQGNIQPQMVDTVTTSEDGLMVTMTLRDGLVWHDGAPVTAADCVASINRWGSKDAMGQKMMSFVESLEATDDKTITFKLSTPTGLVTLALAKPSSNVPFMMPERVASTPSSEQIADYTGSGPFVFRQ
MTPAELKRLYHIIKVQLEYGLDELLPDHQLTKAPLLMRKSLFWIKNQHPEKPLGERLRLALQELGPVWIKFGQMMSTRRDLFPPHIADPLALLQDQVAPFDGELAKQQMEKALGGPLENWFTEFDIKPLEHHHHHH
MRNLSDRAKFESMINSPSKSVFVRNLNELEALAVRLGKSYRIQLDQAKEKWKVK
MKLALLGRQALMGVMAVALVAGMSAKSFADEGLLNKVKERGTLLVGLEGTYPPFSFQGEDGKLTGFEVDFAEALAKHLGVKASLKPTKWDGMLASLDAKRIDVVINQVTISDVRKKKYDFSTPYTVSGIQALVKKGNEGTIKTAADLQGKKVGVGLGTNYEEWLRQHVQGVDIRTYDDDPTKYQDLRVGRIDAILVDRLAALDLVKKTKGTLAVTGDAFSRQESGVALRKGNEDLLKAVDNAIAEMQKDGTLKALSEKWFGADVTQ
MKPDAHQVKQFLLNLQDTICQQLTAVDGAEFVEDSWQREAGGGGRSRVLRNGGVFEQAGVNFSHVHGEAMPASATAHRPELAGRSFEAMGVSLVVHPHNPYVPTSHANVRFFIAEKPGAEPVWWFGGGFDLTPFYGFEEDAIHWHRTARDLCQPFGEDVYPRYKKWCDDYFYLKHRNEQRGIGGLFFDDLNTPDFDHCFAFMQAVGKGYTDAYLPIVERRKAMAYGERERNFQLYRRGRYVEFNLVWDRGTLFGLQTGGRTESILMSMPPLVRWEYDYQPKDGSPEAALSEFIKVRDWGLEHHHHHH
